{
  "source": "paper PMC9364715",
  "molecular_target": "Ad5 hexon with DogTag inserted at HVR5, on Ad-DogTag virions (human adenovirus 5 (Ad5)) (UniProt P04133)",
  "test": "SDS-PAGE gel shift",
  "data": [
    {"substance": "DogCatcher fused to SARS-CoV-2 spike receptor-binding domain (DogCatcher-RBD) (from UniProt P0DTC2 319-532) (designed binder)", "values": [
      {"measurement": "percent of hexon covalently coupled (% of hexon monomers)", "value": 57}
    ]}
  ]
}
